Data as given in PMC4728125, “Molecular basis for allosteric specificity regulation in class Ia ribonucleotide reductase from Escherichia coli” (eLife, 2016).

Tests used:
[1] = target: ribonucleotide reductase β2 (Escherichia coli) (UniProt P69924); conditions: cited from earlier work
[2] = target: the molecule itself; experiment: crystal structure; α4β4 crystal form; 25 μM α2 and 50 μM met-β2 in 50 mM HEPES, 15 mM MgCl2, 1 mM EDTA, pH 7.6, with 10 mM dATP and 5 mM DTT; hanging drop, ~25°C; crystals soaked with CDP/dATP, UDP/dATP, ADP/dGTP or GDP/TTP; four structures at 2.97-3.40 Å

ribonucleotide reductase β2 (Escherichia coli), sequence (P69924 2-376): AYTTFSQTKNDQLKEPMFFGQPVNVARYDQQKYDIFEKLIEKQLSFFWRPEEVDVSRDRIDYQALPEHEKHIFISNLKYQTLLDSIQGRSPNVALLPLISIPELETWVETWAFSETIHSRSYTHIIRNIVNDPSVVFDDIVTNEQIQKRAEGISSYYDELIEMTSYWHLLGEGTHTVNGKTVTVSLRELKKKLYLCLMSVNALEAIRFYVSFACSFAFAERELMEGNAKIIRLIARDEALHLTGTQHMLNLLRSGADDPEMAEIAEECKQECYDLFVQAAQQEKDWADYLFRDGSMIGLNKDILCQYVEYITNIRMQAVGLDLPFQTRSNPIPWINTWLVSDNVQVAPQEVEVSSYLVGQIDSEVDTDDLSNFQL

| Molecule | Kd [1] [nM] | binding result [2] |
| --- | --- | --- |
| ribonucleotide reductase α2 (from UniProt P00452) | 400 | – |
| Escherichia coli class Ia ribonucleotide reductase catalytic subunit α2 (enzyme, E. coli, UniProt P00452 1-761, looked up, Ribonucleotide reductase class Ia α subunit (NrdA, protein R1), E. coli; residues about 4-737 modelled; 172-kDa homodimer; no tag is named for this preparation; The His6-tagged α2 was used only in the activity assays; also called α subunit; RNR α; source: prepared as described (Salowe et al., 1987; Salowe and Stubbe, 1986), purified) MNQNLLVTKRDGSTERINLDKIHRVLDWAAEGLHNVSISQVELRSHIQFYDGIKTSDIHETIIKAAADLISRDAPDYQYLAARLAIFHLRKKAYGQFEPPALYDHVVKMVEMGKYDNHLLEDYTEEEFKQMDTFIDHDRDMTFSYAAVKQLEGKYLVQNRVTGEIYESAQFLYILVAACLFSNYPRETRLQYVKRFYDAVSTFKISLPTPIMSGVRTPTRQFSSCVLIECGDSLDSINATSSAIVKYVSQRAGIGINAGRIRALGSPIRGGEAFHTGCIPFYKHFQTAVKSCSQGGVRGGAATLFYPMWHLEVESLLVLKNNRGVEGNRVRHMDYGVQINKLMYTRLLKGEDITLFSPSDVPGLYDAFFADQEEFERLYTKYEKDDSIRKQRVKAVELFSLMMQERASTGRIYIQNVDHCNTHSPFDPAIAPVRQSNLCLEIALPTKPLNDVNDENGEIALCTLSAFNLGAINNLDELEELAILAVRALDALLDYQDYPIPAAKRGAMGRRTLGIGVINFAYYLAKHGKRYSDGSANNLTHKTFEAIQYYLLKASNELAKEQGACPWFNETTYAKGILPIDTYKKDLDTIANEPLHYDWEALRESIKTHGLRNSTLSALMPSETSSQISNATNGIEPPRGYVSIKASKDGILRQVVPDYEHLHDAYELLWEMPGNDGYLQLVGIMQKFIDQSISANTNYDPSRFPSGKVPMQQLLKDLLTAYKFGVKTLYYQNTRDGAEDAQDDLVPSIQDDGCESGACKI | – | binds |
